Test results as given in US20190225687A1 (I MAB, published 2019).
Numbering of substitutions follows the chain as printed.

B1: 147H-6 (antibody, V domains shown)
VH: QVQLVQSGAEVKKPGASVKVSCKASGYTFTNYWLGWIKQAPGQGLEWIGDIYPGGDYINYNEKFKGKATLTADTSISTAYMELSRLRSDDTAVYYCARPNLPGDYWGQGTTVTVSS
VL: DIVMTQSPLSLPVTPGEPASISCRSSKSLLHSNGITYLYWYLQKPGQSPQLLIYQVSNLASGVPDRFSGSGSGTDFTLKISRVEAEDVGVYYCAQNLELPWTFGGGTKVEIK
B2: 147H-13 (antibody, V domains shown)
VH: B1 VH with Q1E
VL: B1 VL
notes: also called 147H4-13
B3: 147H 3811 (antibody, V domains shown)
VH: B1 VH with Q1E, T28L, N59V, G103K, Y105H
VL: B1 VL with G34A, S61T, A94G, N96Y
B4: 147H 3550 (antibody, V domains shown)
VH: B1 VH with Q1E, G103K, Y105H
VL: B1 VL with G34A, N96Y
B5: 147H 3668 (antibody, V domains shown)
VH: B1 VH with Q1E, N59V
VL: B1 VL with G34A, S61T
B6: 147H 3549 (antibody, V domains shown)
VH: B1 VH with Q1E, G103K, Y105H
VL: B1 VL with G34A, N96Y, L99E
B7: 147H 3669 (antibody, V domains shown)
VH: B1 VH with Q1E, T28L, N59V
VL: B1 VL with G34A
B8: 147H 3808 (antibody, V domains shown)
VH: B1 VH with Q1E, N59V, G103K, Y105H
VL: B1 VL with G34A, A94G, N96Y
B9: 147H 3663 (antibody, V domains shown)
VH: B1 VH with Q1E, T30E, N59V
VL: B1 VL with G34A, S61R
B10: 147H 3810 (antibody, V domains shown)
VH: B1 VH with Q1E, T28L, N59V, G103K, Y105H
VL: B1 VL with G34A, S61T, N96Y
notes: also called B3810
B11: 147H 3807 (antibody, V domains shown)
VH: B1 VH with Q1E, N59V, G103K, Y105H
VL: B1 VL with G34A, N96Y
notes: also called B3807
B12: 147H 3792 (antibody, V domains shown)
VH: B1 VH with Q1E, N59V
VL: B1 VL with G34A, N96Y
B13: 147H 3421 (antibody, V domains shown)
VH: B1 VH with Q1E, G103K, Y105H
VL: B1 VL with G34A
B14: 147H 3794 (antibody, V domains shown)
VH: B1 VH with Q1E, T28L, N59V
VL: B1 VL with G34A, N96Y
B15: 147H 3809 (antibody, V domains shown)
VH: B1 VH with Q1E, T28L, N59V, G103K, Y105H
VL: B1 VL with G34A, N96Y
B16: 147H 3508 (antibody, V domains shown)
VH: B1 VH with Q1E, G103K, Y105H
VL: B1 VL with G34A, A94G

Key:
[1] = target: T1, LAG3 antigen of the Octet RED96 runs (UniProt P18627 23-450, limits assumed); assay: BLI, Octet RED96, full kinetics, antigen 3.125-50 nM
T1 sequence (looked up): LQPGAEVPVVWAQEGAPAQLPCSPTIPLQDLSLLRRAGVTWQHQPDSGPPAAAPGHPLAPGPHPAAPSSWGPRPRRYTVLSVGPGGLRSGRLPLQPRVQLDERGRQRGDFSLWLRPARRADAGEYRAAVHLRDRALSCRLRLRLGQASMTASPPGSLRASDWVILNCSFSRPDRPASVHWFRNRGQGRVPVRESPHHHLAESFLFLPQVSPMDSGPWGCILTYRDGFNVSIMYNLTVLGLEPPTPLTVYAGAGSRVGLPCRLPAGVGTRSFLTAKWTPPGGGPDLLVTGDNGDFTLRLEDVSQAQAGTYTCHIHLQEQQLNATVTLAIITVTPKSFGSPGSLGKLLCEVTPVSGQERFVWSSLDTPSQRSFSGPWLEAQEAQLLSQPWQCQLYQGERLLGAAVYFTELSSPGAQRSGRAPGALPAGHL
Protocol: The binding affinity was calculated by software in Octet® RED96 System.

[2] = target: T2, human LAG3 of the LAG3 and MHC II binding assay kit (Cisbio, 64ICP03PEG) (human, UniProt P18627 23-450, limits assumed); assay: TR-FRET LAG3/MHC II binding assay (Cisbio); blocks MHC II
T2 construct: Bought kit reagent
T2 sequence (looked up): T1 sequence (looked up)
Protocol: To measure the ability of anti-LAG3 monoclonal antibodies to block the interaction between human LAG3 and MHCII, the LAG3 and MHC II binding assay (Cisbio, 64ICP03PEG) were performed utilizing homogeneous TR-FRET technology, following the protocol provided by the kit manufacturer. Anti-human LAG3 antibodies were 3-fold diluted ranging from 100 nM to 5 pM (10 points). Fluorescence data was acquired on a PerkinElmer Envision plate reader and a four-parameter dose-response curve was fitted to obtain IC50 of each antibody.

Binder	IC50 [2]	also measured
B1	–	Kd [1]: 26.5 nM; koff [1]: 0.00312 s⁻¹; kon [1]: 118000 M⁻¹ s⁻¹
B2	2.2 to 7.6 nM	–
B3	0.59 nM	–
B4	0.39 nM	–
B5	0.9 nM	–
B6	0.44 nM	–
B7	1.2 nM	–
B8	0.5 nM	–
B9	2.7 nM	–
B10	0.63 nM	–
B11	0.31 nM	–
B12	0.73 nM	–
B13	1.5 nM	–
B14	0.63 nM	–
B15	0.96 nM	–
B16	0.55 nM	–
